The source of these data is patent US20220073643A1 (NANJING GENSCRIPT BIOTECH, published 2022).

One may read the EC50 as the concentration that produces a half-maximal response. A high value points to lower potency in that assay.

Residue numbers refer to the chain shown, from its start. Several values for one entry are separate records, joined by “and”; a condition that tells them apart may be missing. Equal entries are not always repeated.

B1: chimeric 393C2C5 (antibody, human IgG1, kappa, V domains shown)
VH: DVQLVESGGGLVQPGGSRKLSCAASGFTFSSFGMHWVRQAPEKGLEWVAYISSGSSPIYYADTVKGRFTISRDNPKNTLFLQMTSLRSEDTAMYFCATFYYGNSFAYWGQGTLVTVSA
VL: DIVMTQSPSSLTVTAGEKVTMSCKSSQTLLNSGNQKNYLTWYQQKSGQPPKLLIYWASTRESGVPDRFTGSGSGTDFTLTISSVQAEDLAVYYCQNAYSYPVTFGSGTKVELKR
notes: chimeric, human IgG1/kappa constant regions; also called 393C2C5A
B2: chimeric 412B6E4 (antibody, human IgG1, kappa, V domains shown)
VH: B1 VH with M34V, P57T, D62H, T63S, R87G, M93T, F95Y, T98R
VL: B1 VL with T28S, S46P, L52M, S99T, V102L, S106A, K109R, V110L
notes: chimeric, human IgG1/kappa constant regions; also called 412B6E4-Chimeric
B3: chimeric 419B5G9 (antibody, human IgG1, kappa, V domains shown)
VH: B1 VH with S31T, S53G, S56T, P57T, Y59F, L86V, F95Y, T98R, Q110P, A118T
VL: B1 VL with T28S, S46P, L52M, V102L, S106A, V110L
notes: chimeric, human IgG1/kappa constant regions
B4: chimeric 410H6H3 (antibody, human IgG1, kappa, V domains shown)
VH: B1 VH with Q3L, F32S, S56N, P57T, V64L, F95Y, T98R, F99I, A106V
VL: DIVMTQSPSSLTVTAGEKVIMSCKSSQSLLNSGNQKNYLTWYQQKPGQPPKMLIYWASTRESGVPDRFRGSGSGTDFTLTISSVQAEDLAVYYCQNNYYYPLTFGTGTKLALKR
notes: chimeric, human IgG1/kappa constant regions; also called 410H6H3-Chimeric
B5: chimeric 418D2F9 (antibody, human IgG1, kappa, V domains shown)
VH: B1 VH with S52N, S53T, P57T, F95Y, T98R, F99I, A106V
VL: B1 VL with T28S, S46P, A97D, V102L, S106A, V110L
notes: as for B3
B6: chimeric 429H6C5 (antibody, human IgG1, kappa, V domains shown)
VH: B1 VH with G44E, P57T, D62H, Q82R, R87G, F95Y, A97V, T98R, A106V, Y107N
VL: B4 VL with V13A, I20T, R69A, N97A, Y99I, T106A, K109R, A111E
notes: as for B3
B7: IMAB362 analog (Claudiximab, Zolbetuximab) (antibody, V domains shown)
VH: QVQLQQPGAELVRPGASVKLSCKASGYTFTSYWINWVKQRPGQGLEWIGNIYPSDSYTNYNQKFKDKATLTVDKSSSTAYMQLSSPTSEDSAVYYCTRSWRGNSFDYWGQGTTLTVSS
VL: DIVMTQSPSSLTVTAGEKVTMSCKSSQSLLNSGNQKNYLTWYQQKPGQPPKLLIYWASTRESGVPDRFTGSGSGTDFTLTISSVQAEDLAVYYCQNDYSYPFTFGSGTKLEIK
notes: in-house prepared analog; chimeric IgG1

The first assay concerns the target human Claudin18.2 (human). Kind of assay: cell-based or functional assay.
On to B1, for which the “CDC % Relative activity” value is 2030% and the “CDC EC50” value turned out to be 0.105 µg/mL.
Turning to B2, the “CDC % Relative activity” value was 2020% and the “CDC EC50” value was 0.105 µg/mL.
Regarding B3, the “CDC % Relative activity” value was 2000% and the “CDC EC50” value came to 0.106 µg/mL.
The like results for B4 were, in that order, 2810% and 0.0756 µg/mL.
For B5, in that order: 3.04% and 69.9 µg/mL.
For B6, the “CDC % Relative activity” value amounted to 2430% and the “CDC EC50” value worked out at 0.0874 µg/mL.
On to B7, for which the “CDC EC50” value was 2.7 µg/mL and 2.3 µg/mL and 2.12 µg/mL.

Another assay deals with human Claudin18.2 (human). The experiment in a line: cell-based or functional assay. The source holds these as a separate data set.
Take B1: the “ADCC % Relative activity” value worked out at 318% and the “ADCC EC50” value came to 0.0111 µg/mL.
Turning to B2, the “ADCC % Relative activity” value amounted to 535% and the “ADCC EC50” value amounted to 0.00494 µg/mL.
B3: the “ADCC % Relative activity” value stood at 332% and the “ADCC EC50” value worked out at 0.00794 µg/mL.
For B4, the “ADCC % Relative activity” value is 677% and the “ADCC EC50” value is 0.0039 µg/mL.
The like results for B5 were, in that order, 25.7% and 0.103 µg/mL.
For B6, in that order: 144% and 0.0184 µg/mL.

The target in the next assay is T1, human Claudin18.2 (human).
T1 construct: also called CLDN18.2
Kind of assay: FACS, Claudin18.2-HEK293 cells. Here is the method:
(§1) The binding of chimeric antibodies to Claudin18.2 expressed on HEK293 cells was determine by FACS analysis. Briefly, HEK293 cells expressing human Claudin18.2 as prepared in the foregoing Example were harvested and incubated with anti-Claudin18.2 mAbs at 4° C. for 40 min, followed by fluorophore (iFluor 647)-labeled goat […] IgG (H+L) secondary antibodies at 4° C. for 0.5 hour. The samples were then analyzed by flow cytometry.
For orientation: In flow cytometry, cells or beads pass a laser one at a time.
B7: it took 0.596 nM to reach a half-maximal effect (EC50).

Another assay concerns the target T1, human Claudin18.2. The experiment in a line: FACS, Claudin18.2-HEK293 cells. The source holds these as a separate data set. Here is the method: as §1
In the case of B1, the midpoint of the response, the EC50, lay at 0.687 nM.
For B2, the concentration for a half-maximal effect (EC50) is 0.677 nM.
The same measure, in the same setting: with B3 the figure was 1.23 nM; with B4, 0.778 nM; with B5, 0.65 nM.
The molecule B6 yielded an EC50 of 0.908 nM.
On the same count and under the same terms, with B7 the figure was 0.517 nM.

The next assay deals with T1, human Claudin18.2. The experiment in a line: FACS, Claudin18.2-HEK293 cells. This is another data set of the same source.
In turn, B2 registered a concentration giving a half-maximal response (EC50) of 0.555 µg/mL and a Span of 87900.
For B4, in that order: 0.843 µg/mL and 79100.
